Laboratory results taken from the Human Domainome abundance scans (Beltran et al. 2025).
± gives the uncertainty stated by the source.

B1: Neutrophil cytosol factor 2, residues 456 to 514; numbered along this chain, P19878 (parent)
chain: LKKGSQVEALFSYEATQPEDLEFQEGDIILVLSKVNEEWLEGECKGKVGIFPKVFVEDC

Variants of: B1
Test: abundance fitness (aPCA) (normalised: wild type 0, dead -1); higher = more abundant; growth selection in yeast, the domain comes from the species named
Conditions: Homo sapiens

Variant	abundance fitness
LKKGSQVEALFSYEATQPEDLEFQEGDIILVLSKVNECWLEGECKGKVGIFPKVFVEDC [E38C]	-0.702 ± 0.15
LKKGSQVEALFSYEATQPEDLEFQEGDIILVLSKVNEYWLEGECKGKVGIFPKVFVEDC [E38Y]	-0.266 ± 0.11
LKKGSQVEALFSYEATQPEDLEFQEGDIILVLSKVNERWLEGECKGKVGIFPKVFVEDC [E38R]	-0.941 ± 0.21
LKKGSQVEALFSYEATQPEDLEFQEGDIILVLSKVNEIWLEGECKGKVGIFPKVFVEDC [E38I]	-0.097 ± 0.12
LKKGSQVEALFSYEATQPEDLEFQEGDIILVLSKVNEAWLEGECKGKVGIFPKVFVEDC [E38A]	-0.329 ± 0.13
LKKGSQVEALFSYEATQPEDLEFQEGDIILVLSKVNEGWLEGECKGKVGIFPKVFVEDC [E38G]	-0.207 ± 0.098
LKKGSQVEALFSYEATQPEDLEFQEGDIILVLSKVNESWLEGECKGKVGIFPKVFVEDC [E38S]	-0.701 ± 0.13
LKKGSQVEALFSYEATQPEDLEFQEGDIILVLSKVNEVWLEGECKGKVGIFPKVFVEDC [E38V]	-0.479 ± 0.11
LKKGSQVEALFSYEATQPEDLEFQEGDIILVLSKVNENWLEGECKGKVGIFPKVFVEDC [E38N]	-0.131 ± 0.12
LKKGSQVEALFSYEATQPEDLEFQEGDIILVLSKVNEHWLEGECKGKVGIFPKVFVEDC [E38H]	-0.362 ± 0.17
LKKGSQVEALFSYEATQPEDLEFQEGDIILVLSKVNEWWLEGECKGKVGIFPKVFVEDC [E38W]	-0.396 ± 0.24
LKKGSQVEALFSYEATQPEDLEFQEGDIILVLSKVNEKWLEGECKGKVGIFPKVFVEDC [E38K]	-0.649 ± 0.31
LKKGSQVEALFSYEATQPEDLEFQEGDIILVLSKVNEPWLEGECKGKVGIFPKVFVEDC [E38P]	-0.496 ± 0.19
LKKGSQVEALFSYEATQPEDLEFQEGDIILVLSKVNEDWLEGECKGKVGIFPKVFVEDC [E38D]	0.028 ± 0.12
LKKGSQVEALFSYEATQPEDLEFQEGDIILVLSQVNEEWLEGECKGKVGIFPKVFVEDC [K34Q]	-0.215 ± 0.27
LKKGSQVEALFSYEATQPEDLEFQEGDIILVLSIVNEEWLEGECKGKVGIFPKVFVEDC [K34I]	0.456 ± 0.08
LKKGSQVEALFSYEATQPEDLEFQEGDIILVLSTVNEEWLEGECKGKVGIFPKVFVEDC [K34T]	0.4 ± 0.097
LKKGSQVEALFSYEATQPEDLEFQEGDIILVLSHVNEEWLEGECKGKVGIFPKVFVEDC [K34H]	0.059 ± 0.12
LKKGSQVEALFSYEATQPEDLEFQEGDIILVLSSVNEEWLEGECKGKVGIFPKVFVEDC [K34S]	-0.37 ± 0.1
LKKGSQVEALFSYEATQPEDLEFQEGDIILVLSLVNEEWLEGECKGKVGIFPKVFVEDC [K34L]	-0.436 ± 0.14
LKKGSQVEALFSYEATQPEDLEFQEGDIILVLSYVNEEWLEGECKGKVGIFPKVFVEDC [K34Y]	-0.589 ± 0.15
LKKGSQVEALFSYEATQPEDLEFQEGDIILVLSNVNEEWLEGECKGKVGIFPKVFVEDC [K34N]	-0.287 ± 0.13
LKKGSQVEALFSYEATQPEDLEFQEGDIILVLSMVNEEWLEGECKGKVGIFPKVFVEDC [K34M]	-0.326 ± 0.2

Variant	abundance fitness
LKKGSQVEALFSYEATQPEDLEFQEGDIILVLSRVNEEWLEGECKGKVGIFPKVFVEDC [K34R]	-0.47 ± 0.12
LKKGSQVEALFSYEATQPEDLEFQEGDIILVLSVVNEEWLEGECKGKVGIFPKVFVEDC [K34V]	0.467 ± 0.071
LKKGSQVEALFSYEATQPEDLEFQEGDIILVLSWVNEEWLEGECKGKVGIFPKVFVEDC [K34W]	-0.437 ± 0.31
LKKGSQVEALFSYEATQPEDLEFQEGDIILVLSGVNEEWLEGECKGKVGIFPKVFVEDC [K34G]	-0.822 ± 0.17
LKKGSQVEALFSYEATQPEDLEFQEGDIILVLSPVNEEWLEGECKGKVGIFPKVFVEDC [K34P]	-0.853 ± 0.4
LKKGSQVEALFSYEATQPEDLEFQEGDIILVLSKVNFEWLEGECKGKVGIFPKVFVEDC [E37F]	-0.697 ± 0.2
LKKGSQVEALFSYEATQPEDLEFQEGDIILVLSKVNTEWLEGECKGKVGIFPKVFVEDC [E37T]	-0.171 ± 0.14
LKKGSQVEALFSYEATQPEDLEFQEGDIILVLSKVNYEWLEGECKGKVGIFPKVFVEDC [E37Y]	-0.345 ± 0.34
LKKGSQVEALFSYEATQPEDLEFQEGDIILVLSKVNGEWLEGECKGKVGIFPKVFVEDC [E37G]	-0.277 ± 0.12
LKKGSQVEALFSYEATQPEDLEFQEGDIILVLSKVNPEWLEGECKGKVGIFPKVFVEDC [E37P]	-0.903 ± 0.27
LKKGSQVEALFSYEATQPEDLEFQEGDIILVLSKVNAEWLEGECKGKVGIFPKVFVEDC [E37A]	-0.42 ± 0.14
LKKGSQVEALFSYEATQPEDLEFQEGDIILVLSKVNCEWLEGECKGKVGIFPKVFVEDC [E37C]	-0.109 ± 0.15
LKKGSQVEALFSYEATQPEDLEFQEGDIILVLSKVNDEWLEGECKGKVGIFPKVFVEDC [E37D]	0.069 ± 0.12
LKKGSQVEALFSYEATQPEDLEFQEGDIILVLSKVNHEWLEGECKGKVGIFPKVFVEDC [E37H]	-0.328 ± 0.14
LKKGSQVEALFSYEATQPEDLEFQEGDIILVLSKVNNEWLEGECKGKVGIFPKVFVEDC [E37N]	0.241 ± 0.13
LKKGSQVEALFSYEATQPEDLEFQEGDIILVLSKVNLEWLEGECKGKVGIFPKVFVEDC [E37L]	-0.645 ± 0.15
LKKGSQVEALFSYEATQPEDLEFQEGDIILVLSKVNIEWLEGECKGKVGIFPKVFVEDC [E37I]	-0.445 ± 0.17
LKKGSQVEALFSYEATQPEDLEFQEGDIILVLSKVNWEWLEGECKGKVGIFPKVFVEDC [E37W]	-0.279 ± 0.35
LKKGSQVEALFSYEATQPEDLEFQEGDIILVLSKVNVEWLEGECKGKVGIFPKVFVEDC [E37V]	0.085 ± 0.099
LKKGSQVEALFSYEATQPEDLEFQEGDIILVLSKVNREWLEGECKGKVGIFPKVFVEDC [E37R]	-0.22 ± 0.11
LKKGSQVEALFSYEATQPEDLEFQEGDIILVLSKVNSEWLEGECKGKVGIFPKVFVEDC [E37S]	-0.527 ± 0.12
LKKGSQVEALFSYEATQPEDLEFQEGDIILVLSKVNMEWLEGECKGKVGIFPKVFVEDC [E37M]	-0.506 ± 0.22
